{"source": "IntAct's records for PubMed 31911079", "parents": {"B1": {"name": "Lysyl oxidase homolog 2 (Homo sapiens), Q9Y4K0 (parent)", "chain": "MERPLCSHLCSCLAMLALLSPLSLAQYDSWPHYPEYFQQPAPEYHQPQAPANVAKIQLRLAGQKRKHSEGRVEVYYDGQWGTVCDDDFSIHAAHVVCRELGYVEAKSWTASSSYGKGEGPIWLDNLHCTGNEATLAACTSNGWGVTDCKHTEDVGVVCSDKRIPGFKFDNSLINQIENLNIQVEDIRIRAILSTYRKRTPVMEGYVEVKEGKTWKQICDKHWTAKNSRVVCGMFGFPGERTYNTKVYKMFASRRKQRYWPFSMDCTGTEAHISSCKLGPQVSLDPMKNVTCENGLPAVVSCVPGQVFSPDGPSRFRKAYKPEQPLVRLRGGAYIGEGRVEVLKNGEWGTVCDDKWDLVSASVVCRELGFGSAKEAVTGSRLGQGIGPIHLNEIQCTGNEKSIIDCKFNAESQGCNHEEDAGVRCNTPAMGLQKKLRLNGGRNPYEGRVEVLVERNGSLVWGMVCGQNWGIVEAMVVCRQLGLGFASNAFQETWYWHGDVNSNKVVMSGVKCSGTELSLAHCRHDGEDVACPQGGVQYGAGVACSETAPDLVLNAEMVQQTTYLEDRPMFMLQCAMEENCLSASAAQTDPTTGYRRLLRFSSQIHNNGQSDFRPKNGRHAWIWHDCHRHYHSMEVFTHYDLLNLNGTKVAEGHKASFCLEDTECEGDIQKNYECANFGDQGITMGCWDMYRHDIDCQWVDITDVPPGDYLFQVVINPNFEVAESDYSNNIMKCRSRYDGHRIWMYNCHIGGSFSEETEKKFEHFSGLLNNQLSPQ"}}}
{"variants_of": "B1", "conditions": "with vime_human VIM"}
{"variant": "H626Q;H628Q;Y689F", "effect of a mutation on the interaction": "with no effect"}
{"variants_of": "B1", "conditions": "with can2_human CAPN2, P17655"}
{"variant": "H626Q;H628Q;Y689F", "effect of a mutation on the interaction": "with no effect"}
{"variant": "N288Q;N455Q;N644Q", "effect of a mutation on the interaction": "with no effect"}
